Experimental data as given in US8022177B2, “Peptides and calcium regulation in mammalian cells” (The Board of Trustees of the University of Illinois, priority 2005, dated 2011).
Where two headings read alike, the source gives them in different places.

Experiments:
Cav3.1 [1] = target: T1, Cav3.1 (Homo sapiens, UniProt O43497); experiment: Whole-cell patch clamp of Cav3.1 current in Cav3.1-HEK cells transfected with γ6, γ4, their first transmembrane domains or point mutants (Example 3); type: cell-based; settings: for Normalized Current Density: relative to vector control (100.0%), Table 3.3
T1 construct: expressed in transfected cells; host or cells: HEK-293, stably transfected
T1 sequence (O43497 whole entry, the tested form may be a part): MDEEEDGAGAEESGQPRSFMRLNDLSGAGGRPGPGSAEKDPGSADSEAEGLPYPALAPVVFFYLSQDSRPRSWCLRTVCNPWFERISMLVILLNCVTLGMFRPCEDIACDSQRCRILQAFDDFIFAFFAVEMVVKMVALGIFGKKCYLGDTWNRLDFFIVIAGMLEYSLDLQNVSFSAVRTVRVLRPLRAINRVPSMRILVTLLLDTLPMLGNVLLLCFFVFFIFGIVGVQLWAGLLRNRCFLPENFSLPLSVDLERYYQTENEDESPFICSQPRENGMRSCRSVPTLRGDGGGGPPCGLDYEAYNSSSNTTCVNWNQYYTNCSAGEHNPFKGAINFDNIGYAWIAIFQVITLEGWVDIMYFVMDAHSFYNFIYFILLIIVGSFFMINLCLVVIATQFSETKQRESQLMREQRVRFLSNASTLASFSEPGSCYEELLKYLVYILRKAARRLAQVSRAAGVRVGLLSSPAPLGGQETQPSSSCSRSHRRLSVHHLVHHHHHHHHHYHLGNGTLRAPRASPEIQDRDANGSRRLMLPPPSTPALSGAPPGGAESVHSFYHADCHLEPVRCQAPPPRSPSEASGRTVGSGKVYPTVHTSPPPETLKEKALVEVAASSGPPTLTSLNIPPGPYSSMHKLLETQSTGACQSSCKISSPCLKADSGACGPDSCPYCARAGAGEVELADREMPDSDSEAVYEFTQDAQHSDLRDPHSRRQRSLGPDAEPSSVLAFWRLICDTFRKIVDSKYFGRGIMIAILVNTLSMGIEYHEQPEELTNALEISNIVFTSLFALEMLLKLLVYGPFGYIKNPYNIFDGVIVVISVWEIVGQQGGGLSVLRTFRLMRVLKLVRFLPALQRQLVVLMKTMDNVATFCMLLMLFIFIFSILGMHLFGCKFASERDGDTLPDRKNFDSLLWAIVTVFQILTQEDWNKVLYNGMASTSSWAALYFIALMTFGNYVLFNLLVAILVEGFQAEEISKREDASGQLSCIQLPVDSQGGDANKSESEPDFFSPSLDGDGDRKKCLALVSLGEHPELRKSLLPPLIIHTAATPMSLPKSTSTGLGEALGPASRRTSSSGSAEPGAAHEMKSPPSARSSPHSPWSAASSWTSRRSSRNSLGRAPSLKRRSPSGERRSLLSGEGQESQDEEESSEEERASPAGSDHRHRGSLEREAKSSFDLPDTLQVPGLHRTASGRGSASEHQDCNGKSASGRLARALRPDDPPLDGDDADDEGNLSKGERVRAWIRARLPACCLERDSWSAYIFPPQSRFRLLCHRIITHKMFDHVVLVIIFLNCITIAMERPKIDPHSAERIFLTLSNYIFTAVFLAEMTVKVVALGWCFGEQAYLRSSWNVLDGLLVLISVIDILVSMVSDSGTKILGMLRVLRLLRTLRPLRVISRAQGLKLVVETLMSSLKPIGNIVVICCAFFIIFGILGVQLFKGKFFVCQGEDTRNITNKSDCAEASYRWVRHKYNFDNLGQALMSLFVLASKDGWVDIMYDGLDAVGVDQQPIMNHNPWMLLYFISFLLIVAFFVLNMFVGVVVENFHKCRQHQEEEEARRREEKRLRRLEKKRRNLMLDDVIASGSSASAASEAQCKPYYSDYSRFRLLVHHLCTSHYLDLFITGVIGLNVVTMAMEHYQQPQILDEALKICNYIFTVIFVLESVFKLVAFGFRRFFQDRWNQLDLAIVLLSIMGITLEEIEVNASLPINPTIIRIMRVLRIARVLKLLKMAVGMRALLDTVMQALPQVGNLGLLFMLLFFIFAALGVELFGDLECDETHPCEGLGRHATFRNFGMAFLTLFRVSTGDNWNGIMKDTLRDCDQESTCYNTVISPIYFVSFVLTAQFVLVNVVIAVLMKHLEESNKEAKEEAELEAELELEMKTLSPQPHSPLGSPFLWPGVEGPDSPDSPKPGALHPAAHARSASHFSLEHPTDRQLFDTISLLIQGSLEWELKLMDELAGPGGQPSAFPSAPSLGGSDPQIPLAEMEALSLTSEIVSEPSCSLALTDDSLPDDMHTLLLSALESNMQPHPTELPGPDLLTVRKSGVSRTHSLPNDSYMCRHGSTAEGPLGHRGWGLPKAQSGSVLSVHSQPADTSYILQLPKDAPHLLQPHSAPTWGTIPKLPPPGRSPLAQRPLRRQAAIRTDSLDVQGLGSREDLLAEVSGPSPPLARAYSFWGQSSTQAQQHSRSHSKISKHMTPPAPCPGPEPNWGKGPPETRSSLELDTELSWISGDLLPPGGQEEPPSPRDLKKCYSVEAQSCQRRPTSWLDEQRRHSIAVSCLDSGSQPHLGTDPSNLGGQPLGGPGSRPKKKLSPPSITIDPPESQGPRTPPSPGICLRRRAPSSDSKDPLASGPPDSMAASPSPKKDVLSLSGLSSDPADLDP
Protocol: Transfection. HEK-293 cells stably transfected with the Cav3.1 α1 subunit were transiently transfected with vectors containing GFP and γ subunits cDNA when the cultures reached 50% confluency. Lipofectamine 2000 reagent (Invitrogen) was used following manufacturer's protocol.
Electrophysiology. Whole cell Ca2+ currents were recorded at room temperature using an Axon Instruments Axopatch-1D amplifier, a Digidata 1200 interface and pClamp8.0 software about 48 hours after transfection. Cell capacitance was typically around 10 pF, but ranged from 5-40 pF. Recording micropipettes were made from borosilicate glass (2-3 Mohms tip resistance), and filled with solution contained (in mM) 130 NaCl, 10 EGTA, 2 MgCl2, 1 CaCl2, 10 HEPES, 3 Tris-ATP, and 0.3 Li2GTP or 0.3 Tris-GTP. Tyrode's solution was used as the bath solution. It contained (in mM) 137 NaCl, 1 KCl, 1 MgCl2, 0.33 NaH2PO4, 2 CaCl2, 10 HEPES. Both solutions were adjusted to pH 7.4 with NaOH and 280 mOsm with sucrose.
We determined the biophysical characteristics of Cav3.1 currents in transfected HEK-293 cells and effects of the first transmembrane domain of γ4 and γ6 on these properties. Test parameters were optimized for studying Cav3.1 current. The time constant (τ) of deactivation (τdeac) was obtained by single exponential fitting of tail currents. For Cav3.1 currents, the cells were clamped at a holding potential of −100 mV, then depolarized to −20 mV for 4 msec, and repolarized to various voltages from −120 mV to −60 mV at 10 mV interval for 150 msec to elicit tail currents.
The voltage dependence of activation was measured using tail currents. For Cav3.1 currents, the cells were clamped at a holding potential equal to −100 mV, and then depolarized briefly to a conditioning potential, varying from −90 mV to +60 mV, and finally clamped at −60 mV before inactivation. Using this protocol, all tail currents are elicited at the same driving force (at −60 mV), so the current amplitude accurately reflects the number of channels opened during the different conditioning potentials.
A series of conditioning prepulses of 500 msec were used to measure voltage dependence of inactivation in our experiments. Channels initially open and then reach steady-state inactivation during the 500 msec long prepulses. The membrane potential is stepped to a fixed test potential of −20 mV, where maximal peak current is elicited. Currents elicited at each test potential reflect how many channels are not in the inactivated state after a steady-state inactivation; that is, how many channels are available to open. The conditioning prepulse potentials were changed from −120 mV to 50 mV, and the test potential is fixed at −20 mV.
Data collection and analysis. To probe the structural features necessary for the function of γ subunits, we are using HEK-293 cell line stably transfected with Cav3.1 α1 subunit. These cells are then transiently transfected with vectors containing various chimeric, truncated or mutant gamma subunits. […] There is inherent variation in calcium current density in the HEK-Cav3.1 stable cell line likely due to differences in the batch used, passenger number, extent of cellular confluence, or for other unknown reasons. The averaged current density of each test group of cells was normalized to the mean current density of a parallel control group of cells plated from the same batch of cells and analyzed on the same day. A minimum of 5 cells (typically 7 to 10) from each group was used to calculate the mean behavior of test and control cells from each days recording. At least two independent transfections were performed for each test condition. Overall, averages were obtained from 21 control groups of cells that had been transfected with empty vector over several months. The data are pooled together to reduce the variance. […] The current density of the control cells over many months justified the pooling of data recorded from different batches of cells transfected with mutated γ subunits. […]

Cav3.1 [2] = target: T1, Cav3.1; experiment: Whole-cell patch clamp of Cav3.1 current in Cav3.1/HEK cells transfected with chimeras, truncations and point mutants (Example 6); type: cell-based; settings: FIG. 38, FIG. 41
Protocol: Transfection. HEK-293 cells stably transfected with either Cav3.1 or Cav3.2 were transiently transfected, at 50% confluency, with a bicistronic vector encoding both GFP and γ subunit cDNA's using Lipofectamine 2000 reagent (Invitrogen, Carlsbad, Calif.) as per the manufacturer's recommendations. Cells were visualized using an Nikon inverted microscope with an FITC filter.
Electrophysiology. Whole cell Ca^2+ currents were recorded using an Axon Instruments Axopatch-1D amplifier and Clampex 8.0 software. Pipettes were made from boroscillicate glass and had typical resistances of 2-4 Mohms. The pipette solution contained (in mM) 130 NaCl, 10 EGTA, 2 or 5 MgCl2, 1 CaCl2, 10 HEPES, 3 Tris-ATP, and 0.3 Li2GTP. Two different bath solutions were used. The first, used for experiments with γ subunit chimeras, contained (in mM) 130 NaCl, 1 MgCl2, 2 CaCl2, 10 glucose, 10 HEPES, and 0.03 TTX. The second, used for experiments with γ subunit containg point mutations, contained (in mM) 137 NaCl, 1 KCl, 1 MgCl2, 0.33 NaH2PO4, 2 CaCl2, 10 HEPES. All solutions were adjusted to pH 7.4 with NaOH and 280 mOsm with sucrose. No Cl^− currents were evident in any HEK-293 cells line, stably transfected or not, and no attempt was made to eliminate Cl^− currents from data records.
All electrophysiological data are from current records in which voltage offset was adjusted, pipette capacitance and whole cell capacitance were compensated and series resistance was compensated to >80%. Currents were filtered at 10 kHz and recorded at 40 kHz. In some cases, current records were off-line filtered at 1K. Current voltage relationships were recorded using an on-line P/−4 subtraction procedure to eliminate linear capacitative and leakage currents. Only recordings with less than 50 pA leakage current were used.
Several different protocols were used to determine the biophysical characteristics of currents in HEK-293 cells. The voltage dependence of activation was determined using “tail” currents. Cells were depolarized from a holding potential of −100 mV to test potentials ranging from −90 mV to +60 mV. Pulse durations varied and corresponded to the time to peak current measured at the corresponding test potentials. Following the conditioning pulse cells were re-polarized to −60 mV and the amplitude of the resulting “tail” current measured. The voltage dependence of inactivation was measured by depolarizing the cells to voltages ranging from −120 mV to 50 mV for 500 ms to inactivate the Ca^2+ channels. After this conditioning step the membrane was returned to the holding potential (−100 mV) for 3 ms and then depolarized a second time to +20 mV for 150 ms during which time the peak current was measured. Time constants for inactivation were measured by fitting a single exponential equation to the decay phase of currents elicited by voltage steps from −50 to +30 mV from a holding potential of −100 mV. Time constants for deactivation were measured by fitting either a single or a double exponential to the decay phase of tail currents.
To account for the inherent variation in calcium current density in the HEK-Cav3.1 stable cell line the averaged current density of each test group of cells was normalized to the mean current density of a control group of cells. A minimum of 5 cells (typically 7 to 10) from each group was used to calculate the mean current densities of test and control cells. At least two independent transfections were performed for each test condition. […]

B1: γ1: wild-type calcium channel γ1 subunit (protein, UniProt Q06432 1-222, looked up)
Voltage-dependent calcium …: MSQTKMLKVRVTLFCILAGIVLAMTAVVTDHWAVLSPHMEHHNTTCEAAHFGLWRICTKRIPMDDSKTCGPITLPGEKNCSYFRHFNPGESSEIFEFTTQKEYSISAAAIAIFSLGFIILGSLCVLLSLGKKRDYLLRPASMFYAFAGLCILVSVEVMRQSVKRMIDSEDTVWIEYYYSWSFACACAAFILLFLGGLALLLFSLPRMPRNPWESCMDAEPEH
Inhibitory function on Cav3.1 calcium current (Cav3.1 [1]): no effect on Cav3.1 calcium current | Effect on Cav3.1 calcium current density (Cav3.1 [2]): does not alter calcium current density

B2: γ6 A46I: γ6 mutant, alanine 46 replaced by isoleucine (protein, UniProt Q9BXT2 1-260, looked up, variant A46I)
Voltage-dependent calcium …: MMWSNFFLQEENRRRGAAGRRRAHGQGRSGLTPEREGKVKLALLLIAVGATLAVLSVGTEFWVELNTYKANGSAVCEAAHLGLWKACTKRLWQADVPVDRDTCGPAELPGEANCTYFKFFTTGENARIFQRTTKKEVNLAAAVIAVLGLAVMALGCLCIIMVLSKGAEFLLRVGAVCFGLSGLLLLVSLEVFRHSVRALLQRVSPEPPPAPRLTYEYSWSLGCGVGAGLILLLGAGCFLLLTLPSWPWGSLCPKRGHRAT
Inhibitory function on Cav3.1 calcium current (Cav3.1 [1]): did not inhibit calcium current | Inhibitory function on Cav3.1 calcium current (Cav3.1 [1]; listed as A461): no longer inhibitory | Effect on Cav3.1 calcium current density (Cav3.1 [2]): also altered Cav3.1 current density

B3: γ6 G49A: γ6 with glycine 49 mutated to alanine (protein, UniProt Q9BXT2 1-260, looked up, variant G49A)
Voltage-dependent calcium …: MMWSNFFLQEENRRRGAAGRRRAHGQGRSGLTPEREGKVKLALLLAAVAATLAVLSVGTEFWVELNTYKANGSAVCEAAHLGLWKACTKRLWQADVPVDRDTCGPAELPGEANCTYFKFFTTGENARIFQRTTKKEVNLAAAVIAVLGLAVMALGCLCIIMVLSKGAEFLLRVGAVCFGLSGLLLLVSLEVFRHSVRALLQRVSPEPPPAPRLTYEYSWSLGCGVGAGLILLLGAGCFLLLTLPSWPWGSLCPKRGHRAT
Normalized Current Density (Cav3.1 [1]): 67.6% | Normalized Current Density (Cav3.1 [1]; listed as G49A): 67.6%±5.9% | Normalized current density, % of control (Cav3.1 [2]; Cav3.1/HEK cells): 67.6%±5.9%
